Several values for one entry are separate records, joined by “and”; a condition that tells them apart may be missing. Equal values may be shown once.
How the values were obtained:
[1] = target: α-Synuclein preformed fibrils (α-Syn PFF) (mouse) (UniProt O55042); test: ELISA
[2] = target: α-Synuclein preformed fibrils (α-Syn PFF) (mouse) (UniProt O55042); test: SPR

ΔLRR hNOD2-Fc, sequence (Q9HC29 whole entry, stated change not applied, the tested form may be a part): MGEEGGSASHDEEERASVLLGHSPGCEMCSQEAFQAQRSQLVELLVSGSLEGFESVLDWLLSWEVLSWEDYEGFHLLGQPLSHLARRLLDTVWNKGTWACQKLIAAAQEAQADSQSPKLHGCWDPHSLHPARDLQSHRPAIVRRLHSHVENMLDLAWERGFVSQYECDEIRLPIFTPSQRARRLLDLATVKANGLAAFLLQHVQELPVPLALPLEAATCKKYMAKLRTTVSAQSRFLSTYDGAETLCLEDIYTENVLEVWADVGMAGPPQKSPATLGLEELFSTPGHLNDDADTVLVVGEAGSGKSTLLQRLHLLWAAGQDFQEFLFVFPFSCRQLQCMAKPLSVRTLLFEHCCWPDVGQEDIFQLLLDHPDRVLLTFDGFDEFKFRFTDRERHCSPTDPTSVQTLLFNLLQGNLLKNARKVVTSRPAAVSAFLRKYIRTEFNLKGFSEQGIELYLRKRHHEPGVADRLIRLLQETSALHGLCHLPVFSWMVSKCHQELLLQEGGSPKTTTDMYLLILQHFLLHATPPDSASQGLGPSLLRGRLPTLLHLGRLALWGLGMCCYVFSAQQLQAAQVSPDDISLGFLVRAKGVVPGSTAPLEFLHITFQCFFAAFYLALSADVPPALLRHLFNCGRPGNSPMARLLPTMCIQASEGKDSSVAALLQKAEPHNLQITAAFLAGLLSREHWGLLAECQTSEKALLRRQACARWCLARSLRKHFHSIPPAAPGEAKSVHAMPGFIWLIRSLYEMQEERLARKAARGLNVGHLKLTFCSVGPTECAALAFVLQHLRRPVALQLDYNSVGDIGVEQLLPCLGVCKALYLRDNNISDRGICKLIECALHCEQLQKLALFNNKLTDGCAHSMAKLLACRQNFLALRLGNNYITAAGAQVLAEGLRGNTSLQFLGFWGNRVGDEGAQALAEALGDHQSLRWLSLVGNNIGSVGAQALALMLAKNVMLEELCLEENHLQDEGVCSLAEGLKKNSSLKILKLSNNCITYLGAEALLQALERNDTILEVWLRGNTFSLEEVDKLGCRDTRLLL

| Kd [1] | Kd [2] | Substance |
| --- | --- | --- |
| 2810 nM |  | ΔLRR hNOD2-Fc (from UniProt Q9HC29 1-1040) (Fc fusion) |
| 1200 nM |  | human IgG1 Fc-tagged human NOD2 full-length (FL hNOD2-Fc) (from UniProt Q9HC29 1-1040) (Fc fusion) |
|  | 807 nM and 1190 nM | FL hNOD2 with the Fc-tag removed by HRV 3C protease (from UniProt Q9HC29 1-1040) (natural protein) |

Source: doi:10.1101/2024.02.19.580982
